In EP4737482A1 (Atheon Bio, Inc., dated 2026):

B1: 11B6-p1-uIgG1K (antibody, V domains shown)
VH: EVQLVESGGGLVKPGGSLKLSCAASGFTFSDFGIHWVRQAPEKGLEWVGYISSGSRTIHYADTVKGRFTISRDNAKNTLFLQMTNLRSEDTAIYYCARRDWDPEWLAYWGQGTLVTISA
VL: DVVMTQAPLSLPVSLGDQASISCRSSLSLVHSQGHTYLHWYLQKPGQSPKLLIYKVSNRFSGVPDRFSGSGSGTDFTLKIRRVEAEDLGVYFCSQSTHVPFTFGSGTKLEIK
B2: 11B6-p2-uIgG1K (antibody, V domains shown)
VH: EVQLVESGGGLVKPGGSLKLSCAASGFTFSDFGIHWVRQAPEKGLEWVGYISSGSRTIHYADTVKGRFTISRDNAKNTLFLQMTNLRSEDTAIYYCARRDWDPEWLAYWGQGTLVTISA
VL: DVVMTQAPLSLPVSLGDQASISCRSSLSLVHSSGHTYLHWYLQKPGQSPKLLIYKVSNRFSGVPDRFSGSGSGTDFTLKIRRVEAEDLGVYFCSQSTHVPFTFGSGTKLEIK
B3: 11B6-p3-uIgG1K (antibody, V domains shown)
VH: EVQLVESGGGLVKPGGSLKLSCAASGFTFSDFGIHWVRQAPEKGLEWVGYISSGSRTIHYADTVKGRFTISRDNAKNTLFLQMTNLRSEDTAIYYCARRDWDPEWLAYWGQGTLVTISA
VL: DVVMTQAPLSLPVSLGDQASISCRSSLSLVHSNAHTYLHWYLQKPGQSPKLLIYKVSNRFSGVPDRFSGSGSGTDFTLKIRRVEAEDLGVYFCSQSTHVPFTFGSGTKLEIK
B4: 11B6-z14-uIgG1K (antibody, V domains shown)
VH: EVQLVESGGGLVKPGGSLKLSCAASGFTFSDFGIHWVRQAPEKGLEWVGYISSGSRTIHYADTVKGRFTISRDNAKNTLFLQMTNLRSEDTAIYYCARRDWDPEWLAYWGQGTLVTISA
VL: DVVMTQSPLSLPVTPGEPASISCRSSLSLVHSNGHTYLHWYLQKPGQSPKLLIYKVSNRFSGVPDRFSGSGSGTDFTLKIRRVEAEDVGVYFCSQSTHVPFTFGQGTKLEIK
B5: 11B6-z15-uIgG1K (antibody, V domains shown)
VH: EVQLVESGGGLVKPGGSLRLSCAASGFTFSDFGIHWVRQAPGKGLEWVGYISSGSRTIHYADTVKGRFTISRDNAKNTLFLQMNSLRAEDTAIYYCARRDWDPEWLAYWGQGTLVTVSS
VL: DVVMTQAPLSLPVSLGDQASISCRSSLSLVHSNGHTYLHWYLQKPGQSPKLLIYKVSNRFSGVPDRFSGSGSGTDFTLKIRRVEAEDLGVYFCSQSTHVPFTFGSGTKLEIK
B6: 11B6-z0-uIgG1K (antibody, V domains shown)
VH: EVQLVESGGGLVKPGGSLRLSCAASGFTFSDFGIHWVRQAPGKGLEWVSYISSGSRTIHYADTVKGRFTISRDNAKNSLYLQMNSLRAEDTAVYYCARRDWDPEWLAYWGQGTLVTVSS
VL: DIVMTQSPLSLPVTPGEPASISCRSSLSLVHSNGHTYLHWYLQKPGQSPQLLIYKVSNRFSGVPDRFSGSGSGTDFTLKISRVEAEDVGVYYCSQSTHVPFTFGQGTKLEIK
B7: 11B6-z1-uIgG1K (antibody, V domains shown)
VH: EVQLVESGGGLVKPGGSLRLSCAASGFTFSDFGIHWVRQAPGKGLEWVGYISSGSRTIHYADTVKGRFTISRDNAKNSLYLQMNSLRAEDTAVYYCARRDWDPEWLAYWGQGTLVTVSS
VL: DIVMTQSPLSLPVTPGEPASISCRSSLSLVHSNGHTYLHWYLQKPGQSPQLLIYKVSNRFSGVPDRFSGSGSGTDFTLKISRVEAEDVGVYYCSQSTHVPFTFGQGTKLEIK
B8: 11B6-z2-uIgG1K (antibody, V domains shown)
VH: EVQLVESGGGLVKPGGSLRLSCAASGFTFSDFGIHWVRQAPGKGLEWVSYISSGSRTIHYADTVKGRFTISRDNAKNTLYLQMNSLRAEDTAVYYCARRDWDPEWLAYWGQGTLVTVSS
VL: DIVMTQSPLSLPVTPGEPASISCRSSLSLVHSNGHTYLHWYLQKPGQSPQLLIYKVSNRFSGVPDRFSGSGSGTDFTLKISRVEAEDVGVYYCSQSTHVPFTFGQGTKLEIK
B9: 11B6-z3-uIgG1K (antibody, V domains shown)
VH: EVQLVESGGGLVKPGGSLRLSCAASGFTFSDFGIHWVRQAPGKGLEWVSYISSGSRTIHYADTVKGRFTISRDNAKNSLFLQMNSLRAEDTAVYYCARRDWDPEWLAYWGQGTLVTVSS
VL: DIVMTQSPLSLPVTPGEPASISCRSSLSLVHSNGHTYLHWYLQKPGQSPQLLIYKVSNRFSGVPDRFSGSGSGTDFTLKISRVEAEDVGVYYCSQSTHVPFTFGQGTKLEIK
B10: 11B6-z4-uIgG1K (antibody, V domains shown)
VH: EVQLVESGGGLVKPGGSLRLSCAASGFTFSDFGIHWVRQAPGKGLEWVSYISSGSRTIHYADTVKGRFTISRDNAKNSLYLQMNSLRAEDTAIYYCARRDWDPEWLAYWGQGTLVTVSS
VL: DIVMTQSPLSLPVTPGEPASISCRSSLSLVHSNGHTYLHWYLQKPGQSPQLLIYKVSNRFSGVPDRFSGSGSGTDFTLKISRVEAEDVGVYYCSQSTHVPFTFGQGTKLEIK
B11: 11B6-z5-uIgG1K (antibody, V domains shown)
VH: EVQLVESGGGLVKPGGSLRLSCAASGFTFSDFGIHWVRQAPGKGLEWVSYISSGSRTIHYADTVKGRFTISRDNAKNSLYLQMNSLRAEDTAVYYCARRDWDPEWLAYWGQGTLVTVSS
VL: DVVMTQSPLSLPVTPGEPASISCRSSLSLVHSNGHTYLHWYLQKPGQSPQLLIYKVSNRFSGVPDRFSGSGSGTDFTLKISRVEAEDVGVYYCSQSTHVPFTFGQGTKLEIK
B12: 11B6-z6-uIgG1K (antibody, V domains shown)
VH: EVQLVESGGGLVKPGGSLRLSCAASGFTFSDFGIHWVRQAPGKGLEWVSYISSGSRTIHYADTVKGRFTISRDNAKNSLYLQMNSLRAEDTAVYYCARRDWDPEWLAYWGQGTLVTVSS
VL: DIVMTQSPLSLPVTPGEPASISCRSSLSLVHSNGHTYLHWYLQKPGQSPKLLIYKVSNRFSGVPDRFSGSGSGTDFTLKISRVEAEDVGVYYCSQSTHVPFTFGQGTKLEIK
B13: 11B6-z7-uIgG1K (antibody, V domains shown)
VH: EVQLVESGGGLVKPGGSLRLSCAASGFTFSDFGIHWVRQAPGKGLEWVSYISSGSRTIHYADTVKGRFTISRDNAKNSLYLQMNSLRAEDTAVYYCARRDWDPEWLAYWGQGTLVTVSS
VL: DIVMTQSPLSLPVTPGEPASISCRSSLSLVHSNGHTYLHWYLQKPGQSPQLLIYKVSNRFSGVPDRFSGSGSGTDFTLKIRRVEAEDVGVYYCSQSTHVPFTFGQGTKLEIK
B14: 11B6-z8-uIgG1K (antibody, V domains shown)
VH: EVQLVESGGGLVKPGGSLRLSCAASGFTFSDFGIHWVRQAPGKGLEWVSYISSGSRTIHYADTVKGRFTISRDNAKNSLYLQMNSLRAEDTAVYYCARRDWDPEWLAYWGQGTLVTVSS
VL: DIVMTQSPLSLPVTPGEPASISCRSSLSLVHSNGHTYLHWYLQKPGQSPQLLIYKVSNRFSGVPDRFSGSGSGTDFTLKISRVEAEDVGVYFCSQSTHVPFTFGQGTKLEIK
B15: 11B6-z9-uIgG1K (antibody, V domains shown)
VH: EVQLVESGGGLVKPGGSLRLSCAASGFTFSDFGIHWVRQAPGKGLEWVSYISSGSRTIHYADTVKGRFTISRDNAKNSLYLQMNSLRAEDTAVYYCARRDWDPEWLAYWGQGTLVTVSS
VL: DVVMTQSPLSLPVTPGEPASISCRSSLSLVHSNGHTYLHWYLQKPGQSPQLLIYKVSNRFSGVPDRFSGSGSGTDFTLKISRVEAEDVGVYFCSQSTHVPFTFGQGTKLEIK
B16: 11B6-z10-uIgG1K (antibody, V domains shown)
VH: EVQLVESGGGLVKPGGSLRLSCAASGFTFSDFGIHWVRQAPGKGLEWVGYISSGSRTIHYADTVKGRFTISRDNAKNSLYLQMNSLRAEDTAVYYCARRDWDPEWLAYWGQGTLVTVSS
VL: DVVMTQSPLSLPVTPGEPASISCRSSLSLVHSNGHTYLHWYLQKPGQSPQLLIYKVSNRFSGVPDRFSGSGSGTDFTLKISRVEAEDVGVYFCSQSTHVPFTFGQGTKLEIK

Biological target: T1, human MYCT1 (hMYCT1) (human, UniProt Q8N699 1-235, limits assumed)
T1 construct: also called MYC Target 1
T1 sequence: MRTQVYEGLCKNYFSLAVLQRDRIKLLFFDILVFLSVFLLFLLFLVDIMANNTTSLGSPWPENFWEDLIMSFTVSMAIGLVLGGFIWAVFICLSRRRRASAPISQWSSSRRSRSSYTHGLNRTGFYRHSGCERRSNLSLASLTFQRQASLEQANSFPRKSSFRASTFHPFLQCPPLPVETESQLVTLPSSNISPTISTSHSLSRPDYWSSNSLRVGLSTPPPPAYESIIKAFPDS
Experiment: SPR koff ranking, single curve, antibody captured via anti-human Fc IgG, 10 nM MYCT1 as analyte, 1:1 binding model

Row | Binder | koff
1 | B1 | 0.00933 s⁻¹
2 | B2 | 0.00691 s⁻¹
3 | B3 | 0.00547 s⁻¹
4 | B4 | 0.0052 s⁻¹
5 | B5 | 0.00906 s⁻¹
6 | B6 | 0.0624 s⁻¹
7 | B7 | 0.0169 s⁻¹
8 | B8 | 0.056 s⁻¹
9 | B9 | 0.0659 s⁻¹
10 | B10 | 0.0476 s⁻¹
11 | B11 | 0.0521 s⁻¹
12 | B12 | 0.0377 s⁻¹
13 | B13 | 0.0473 s⁻¹
14 | B14 | 0.0324 s⁻¹
15 | B15 | 0.0311 s⁻¹
16 | B16 | 0.0102 s⁻¹
